Reference: patent publication US20190338026A1 (University of Texas, published 2019)

T1: LAIR1 on LAIR1 reporter cells (human, UniProt Q6GTX8 22-165, limits assumed)
T1 chain: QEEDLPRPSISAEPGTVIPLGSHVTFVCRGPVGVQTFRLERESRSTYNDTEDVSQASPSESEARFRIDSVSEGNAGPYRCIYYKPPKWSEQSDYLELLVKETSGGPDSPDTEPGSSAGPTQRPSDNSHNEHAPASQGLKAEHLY

T2: human LAIR1 extracellular domain (ECD) protein with 6 HIS tag at the C-terminus (human, UniProt Q6GTX8 22-165)
T2 construct: Produced recombinantly in HEK293 cells; the whole entry is named here; also called LAIR1 ECD; LAIR1-ECD
T2 chain: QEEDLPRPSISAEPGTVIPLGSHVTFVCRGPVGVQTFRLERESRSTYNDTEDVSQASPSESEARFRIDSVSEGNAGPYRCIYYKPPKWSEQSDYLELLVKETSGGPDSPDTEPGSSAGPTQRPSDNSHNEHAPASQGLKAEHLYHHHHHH

T3: recombinant LAIR1 (human, UniProt Q6GTX8 22-165, limits assumed)
T3 construct: also called LAIR1 (Octet analyte)
T3 chain: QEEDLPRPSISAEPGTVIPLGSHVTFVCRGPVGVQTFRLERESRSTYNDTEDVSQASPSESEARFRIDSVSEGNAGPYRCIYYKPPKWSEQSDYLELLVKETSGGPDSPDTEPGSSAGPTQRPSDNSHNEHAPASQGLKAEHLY


Legend:
[1] = target: T1, LAIR1 on LAIR1 reporter cells
[2] = target: T1, LAIR1 on LAIR1 reporter cells
[3] = target: T2, human LAIR1 extracellular domain (ECD) …; assay: ELISA, LAIR1 ECD coated
Method: (§1) The inventors then used a concentration titration (0-10 μg/ml) by ELISA to determine the LAIR1 monoclonal antibody (mAbs) binding to human LAIR1 ECD. […] For FIGS. 2-39, X axis indicates the antibody concentrations and Y-axis is binding signals, measured as OD (450 nm). To perform the ELISA assay, LAIR1 ECD recombinant protein was coated on high absorption 96-well plates. Serial diluted (3-fold) LAIR1 mAb was added to the coated/blocked plates and detected using goat anti-rabbit F(ab′)2 conjugated HRP as secondary antibody. All assays were repeated 3 times and the titration curves were fitted using 4-parameter fitting curve using the GraphPad software for EC₅₀ estimation.
(§2) Serial dilutions of the LAIR1 monoclonal antibodies (IgGs or scFvs fragments), starting from […] and 3-fold titration down for 12 steps, were added to the 96-well plate for binding by incubating 45 minutes at 37° C. with a cover on the assay plate. Then the plates were washed with PBS containing Tween 20 (0.05% concentration) for 3 times and PBS one time. […] Detection was conducted by adding HRP substrate, TMB (ThermoFisher) for 10 minutes, and stopped by adding 50 μl/well of 2N H2504. The plates were read for absorbance at 450 nm using a plate reader (SpectraMax M4, Molecular Devices). Data were collected and graphed using a 4-parameter fitting curve with GrapPad Prism 7 software for EC₅₀ calculation.

[4] = target: T1, LAIR1 on LAIR1 reporter cells; assay: cell-based or functional assay
[5] = target: T1, LAIR1 on LAIR1 reporter cells; assay: cell-based or functional assay
[6] = target: T1, LAIR1 on LAIR1 reporter cells; assay: cell-based or functional assay
[7] = target: T2, human LAIR1 extracellular domain (ECD) …; assay: ELISA, LAIR1 ECD coated, mAb titrated, anti-rabbit HRP
Method: as §1, §2

recombinant LAIR1 = target: T3, recombinant LAIR1; assay: BLI (Octet), mAb on protein A sensor, recombinant LAIR1 0.1-200 nM, 1:1 fit
Method: To perform the assay, antibody (30 μg/mL) was loaded to the proteins A sensor for 4 min, followed by a short buffering to establish baseline in kinetics buffer. The loaded sensors were then exposed to a series of recombinant LAIR1 concentrations (0.1-200 nM) for kinetic binding detection. Background subtraction was used to correct the sensor drifting. All experiments were performed with shaking at 1,000 rpm. Background wavelength shifts were measured from reference sensors that were loaded only with antibody. ForteBio's data analysis software was used to fit the data to a 1:1 binding model to extract an association rate and dissociation rate. The KD was calculated using the ratio […] using ForteBio's data analysis software 7.0.

Row | Molecule | GFP+% of LAIR1 reporter cells, collagen I coated, no Ab (row collagen I-ctrl) [1] [%] | GFP+% of LAIR1 reporter cells, K562 coculture, no Ab (row Collagen I-ctrl) [2] [%] | EC50 (read off the curve) [3] [µg/mL] | GFP+% of LAIR1 reporter cells, collagen I coated, soluble Ab [4] [%] | GFP+% of LAIR1 reporter cells, collagen I coated, soluble Ab and K562 cells [5] [%] | GFP+ of LAIR1 reporter cells, Collagen I coated [6] [%] | GFP+ of LAIR1 reporter cells, Collagen I coated + K562 [6] [%] | EC50 [7] [nM] | GFP+ of LAIR1 reporter cells, Abs coated [6] [%] | Kd (recombinant LAIR1) [nM] | koff (recombinant LAIR1) [s⁻¹] | kon (recombinant LAIR1) [M⁻¹ s⁻¹]
1 | LA-219 (antibody, V domains shown, Rabbit monoclonal IgG; Called a potential antagonist antibody) VH: EQSVESGGGLITPGGTLTLTCTASGFTVTRYYMNWVRQAPGKGLEWIGYIYASSKTYYANWAKGRFTISKTSTTVDLKMTSLTAEDTGTYFCARGGVGNSGLNLDLWGPGTLVTISS VL: ELDMTQTPASVSEPVGGTVTIKCQASQSIGSWLAWYQQKPGQPPKLLIYQASRLASGVSSRFGGSGSGTEFTLTISDLECADAATYYCQQAEYSGDVENTFGGGTEVVVK |  |  | ~0.008 | 0.924 | 2.11 | < 5 | < 5 | 0.06 |  |  |  | 
2 | LA-94 (antibody, V domains shown, Rabbit monoclonal IgG; Called an agonist antibody; also called mAb LA-94; agonist Ab LA-94) VH: EQSLEESEGRLVTPGTPLTLTCTASGFSLSGYHMSWVRQAPGKGLEYIGYISERGTSYYANWAKGRFTVSKSSSSTVVLSIISPTAEDTATYFCARYGGGDSAFILWGPGTLVTISS VL: ELVMTQTPASVSGPVGGTVTIKCQASHNIDNSLAWYQQKPGQPPKLLIYKASTLASGVSSRFKGSGSGTEYTLTISDLECADAATYFCQGTIGLNSGCAFGGGTEVEIK |  |  | ~0.02 | 50.4 | 24.6 | > 40 | > 40 | 0.12 | > 40 |  |  | 
3 | LA-121 (antibody, V domains shown, Rabbit monoclonal IgG) VH: EQSVEESGGRLVTPGTPLTLTCTASGFSLYKYNIQWVRQAPGKGLEYIGASTYAGYTYYASWAIGRVTISRTSTTVDLKMTSPTTEDTATYFCARHIDGDYSGYALWGPGTLVTISS VL: ELDLTQTPASVSAAVGGTVTIKCQASQSIDTWFGWYQQKPGQSPKLLIYGASKLASGVPPRFKGSGSGTEFTLTISDLECADAATYYCQNTYYGVRYLGGAFGGGTEVEIK |  |  | ~0.03 | 1.11 | 0.891 |  |  | 0.21 |  | 0.127 | 2.41e-05 | 190000
4 | LA-258-2 (antibody, V domains shown, Rabbit monoclonal IgG) VH: QSVKESGGDLVKPEGSLTLTCKASGFSFSNSYYMCWVRQAPGKGLEWIACIYTGSTSGTYYASWVNGRFTISKTPSTTVTLQMTSLTVADTATYFCSRKLTNFNGAYLDLWGPGTLVTISS VL: ELVMTQTPSSVEAAVGGTVTIKCQASQSIYSYLAWYQQKPGQPPKVLIYKASTLASGVPSRFKGSGSGTDFTLTISDLECADAATYYCQANNGGSDNNFGGGTEVEIK |  |  | ~0.05 |  |  |  |  | 0.37 |  | 0.0337 | 8.02e-06 | 238000
5 | LA-258-3 (antibody, V domains shown, Rabbit monoclonal IgG) VH: QSVKESGGDLVKPEGSLTLTCKASGFSFSNSYYMCWVRQAPGKGLEWIACIYTGSTSGTYYASWVNGRFTISKTPSTTVTLQMTSLTVADTATYFCSRKLTNFNGAYLDLWGPGTLVTISS VL: ELVLTQTPASVEAAVGGTVTINCQASQSISNLLAWYQQKPGQPPKVLIYKASTLASGVPSRFKGSGSGTDFTLTISDLECADAATYYCQANNGGSDNNFGGGTEVVVKA |  |  | ~0.05 |  |  |  |  | 0.3 |  | 5.58 | 0.00222 | 397000

Results, then the molecule that gave them:

Row | GFP+% of LAIR1 reporter cells, collagen I coated, no Ab (row collagen I-ctrl) [1] [%] | GFP+% of LAIR1 reporter cells, K562 coculture, no Ab (row Collagen I-ctrl) [2] [%] | EC50 (read off the curve) [3] [µg/mL] | GFP+% of LAIR1 reporter cells, collagen I coated, soluble Ab [4] [%] | GFP+% of LAIR1 reporter cells, collagen I coated, soluble Ab and K562 cells [5] [%] | GFP+ of LAIR1 reporter cells, Collagen I coated [6] [%] | GFP+ of LAIR1 reporter cells, Collagen I coated + K562 [6] [%] | EC50 [7] [nM] | GFP+ of LAIR1 reporter cells, Abs coated [6] [%] | Kd (recombinant LAIR1) [nM] | koff (recombinant LAIR1) [s⁻¹] | kon (recombinant LAIR1) [M⁻¹ s⁻¹] | Molecule
6 | 31.3 | 42.5 |  |  |  |  |  |  |  |  |  |  | collagen I (ligand)
7 |  |  | ~0.02 | 63.2 | 18.7 | > 40 | > 40 | 0.04 | > 40 |  |  |  | LA-192 (antibody, V domains shown, Rabbit monoclonal IgG; Called an agonist antibody) VH: EQSLEESGGRLVTPGTPLTLTCTASGFSLSSYYMTWVRQAPGKGLEWIGYMHTGGGVVYASWATGRFTISRTSTTVDLKITSPTTEDTATYFCARSHAGYSTINRLDLWGVGTLVTISS VL: ELDLTQTPSSVSAAVGGTVTISCQSSPSVYTNNLSWFQQKPGQPPKLLIYDASKLESGVPSRFRGSGSGTQFTLTISDVQCDDAATYYCAGAYLSDSDTTFGGGTELEIK
8 |  |  | ~0.008 | 0.679 | 0.698 | < 5 | < 5 | 0.05 |  |  |  |  | LA-252 (antibody, V domains shown, Rabbit monoclonal IgG; Called a potential antagonist antibody) VH: EQSVEESGGRLVTPGTPLTLTCTASGFTISDYHMCWVRQAPGKGLEWIGLIRASHSTAYASWANGRFTISRTSTTVDLKITSPTSEDTATYFCARYGGSGIGCNLWGPGTLVTISS VL: ELVLTQTPASVSEPVGGTVTIKCQASQSIDSNLAWYQQKPGQPPKQLIYAVSNLASGVPSRFKGSGSGTEFTLTISDLECADAASYYCECTYYGNSYVGGFGGGTEVEIK
9 |  |  | ~0.01 | 5.76 | 19 | < 5 |  | 0.03 | > 40 |  |  |  | LA-235 (antibody, V domains shown, Rabbit monoclonal IgG; Called an antagonist antibody) VH: SSSVEESEGRLVTPGTPLTLTCTVSGFSLSSYTMGWVRQAPGEGLEWIGTTSNDGSTYYASWAKGRFTISKTSSTTVDLMMTSLTTEDTATYFCVRGTNIRSLWGPGTLVTISS VL: ELVMTQTPASVEAAVGGTVTIKCQASQSIGSNLAWYQQKPGQPPKLLIYLASALASGVSSRFKGSGSGSDFTLTISDLECADAATYYCQCTYGSSNNNNYGDPFGGGTEVEIK
10 |  |  | ~0.03 |  |  |  |  | 0.22 |  | 0.196 | 4.23e-05 | 216000 | LA-259-2 (antibody, V domains shown, Rabbit monoclonal IgG) VH: QSVKESGGRLVTPGTPLTLTCTASGFSLYKYNIQWVRQAPGKGLEYIGASTYAGYTYYASWAKGRVTISRTSTTVDLKMTSPTTEDTATYFCARHIDGDYSGYALWGPGTLVTISS VL: ELVMTQTPASVSAAVGGTVTIKCQASQSIGTWFAWYQQKPGQSPKLLIYGPSKLASGVPPRFKGSGSGTEFTLTISDLECDDAATYYCQSNGGSISNGWGSFGGGTEVVVK
